Measurements published in US20050182242A1, “Global analysis of protein activities using proteome chips” (priority 2001, published 2005).

B1: BPL1: yeast GST-HisX6 fusion protein on proteome chip (protein, UniProt P48445 1-690, looked up)
Biotin--protein ligase: MNVLVYNGPGTTPGSVKHAVESLRDFLEPYYAVSTVNVKVLQTEPWMSKTSAVVFPGGADLPYVQACQPIISRLKHFVSKQGGVFIGFCAGGYFGTSRVEFAQGDPTMEVSGSRDLRFFPGTSRGPAYNGFQYNSEAGARAVKLNLPDGSQFSTYFNGGAVFVDADKFDNVEILATYAEHPDVPSSDSGKGQSENPAAVVLCTVGRGKVLLTGPHPEFNVRFMRKSTDKHFLETVVENLKAQEIMRLKFMRTVLTKTGLNCNNDFNYVRAPNLTPLFMASAPNKRNYLQEMENNLAHHGMHANNVELCSELNAETDSFQFYRGYRASYDAASSSLLHKEPDEVPKTVIFPGVDEDIPPFQYTPNFDMKEYFKYLNVQNTIGSLLLYGEVVTSTSTILNNNKSLLSSIPESTLLHVGTIQVSGRGRGGNTWINPKGVCASTAVVTMPLQSPVTNRNISVVFVQYLSMLAYCKAILSYAPGFSDIPVRIKWPNDLYALSPTYYKRKNLKLVNTGFEHTKLPLGDIEPAYLKISGLLVNTHFINNKYCLLLGCGINLTSDGPTTSLQTWIDILNEERQQLHLDLLPAIKAEKLQALYMNNLEVILKQFINYGAAEILPSYYELWLHSNQIVTLPDHGNTQAMITGITEDYGLLIAKELVSGSSTQFTGNVYNLQPDGNTFDIFKSLIAKKVQS
modifications: GST-HisX6 tag
notes: yeast GST-HisX6 fusion protein on proteome chip
B2: GFA1: yeast GST-HisX6 fusion protein on proteome chip (protein, UniProt P14742 2-717, looked up)
Glutamine--fructose-6-phosphat …: CGIFGYCNYLVERSRGEIIDTLVDGLQRLEYRGYDSTGIAIDGDEADSTFIYKQIGKVSALKEEITKQNPNRDVTFVSHCGIAHTRWATHGRPEQVNCHPQRSDPEDQFVVVHNGIITNFRELKTLLINKGYKFESDTDTECIAKLYLHLYNTNLQNGHDLDFHELTKLVLLELEGSYGLLCKSCHYPNEVIATRKGSPLLIGVKSEKKLKVDFVDVEFPEENAGQPEIPLKSNNKSFGLGPKKAREFEAGSQNANLLPIAANEFNLRHSQSRAFLSEDGSPTPVEFFVSSDAASVVKHTKKVLFLEDDDLAHIYDGELHIHRSRREVGASMTRSIQTLEMELAQIMKGPYDHFMQKEIYEQPESTFNTMRGRIDYENNKVILGGLKAWLPVVRRARRLIMIACGTSYHSCLATRAIFEELSDIPVSVELASDFLDRKCPVFRDDVCVFVSQSGETADTMLALNYCLERGALTVGIVNSVGSSISRVTHCGVHINAGPEIGVASTKAYTSQYIALVMFALSLSDDRVSKIDRRIEIIQGLKLIPGQIKQVLKLEPRIKKLCATELKDQKSLLLLGRGYQFAAALEGALKIKEISYMHSEGVLAGELKHGVLALVDENLPIIAFGTRDSLFPKVVSSIEQVTARKGHPIIICNENDEVWAQKSKSIDLQTLEVPQTVDCLQGLINIIPLQLMSYWLAVNKGIDVDFPRNLAKSVTVE
modifications: GST-His6 tag
notes: as for B1
B3: YER046W: yeast GST-HisX6 fusion protein on proteome chip (protein, UniProt P40031 1-143, looked up)
Sporulation-specific protein …: MGKNHFLKDFSALPEDVLIENERGITLLGYPLFSPKILLPHVDPPQFQRLNTENGSLIALSKNTISNFIELYPIDLSTERTAGSSSSQMTKWFVLMDYKEKYDIDDQGWCYSWNFNNSRWKSKNGLVRRRVWVRLPTTSHGLD
modifications: GST-His6 tag
notes: as for B1
B4: SUN4: yeast GST-HisX6 fusion protein on proteome chip (protein, UniProt P53616 25-420, looked up)
Probable secreted …: YAADIDTGCTTTAHGSHQHKRAVAVTYVYETVTVDKNGQTVTPTSTEASSTVASTTTLISESSVTKSSSKVASSSESTEQIATTSSSAQTTLTSSETSTSESSVPISTSGSASTSSAASSATGSIYGDLADFSGPYEKFEDGTIPCGQFPSGQGVIPISWLDEGGWSGVENTDTSTGGSCKEGSYCSYACQPGMSKTQWPSDQPSDGRSIGGLLCKDGYLYRSNTDTDYLCEWGVDAAYVVSELSNDVAICRTDYPGTENMVIPTYVQAGDSLPLTVVDQDTYYTWQGLKTSAQYYVNNAGISVEDACVWGSSSSGVGNWAPLNFGAGSSDGVAYLSLIPNPNNGNALNFNVKIVAADDSSTVNGECIYENGSFSGGSDGCTVSVTAGKAKFVLYN
modifications: GST-His6 tag
notes: as for B1
B5: PAT1: yeast GST-HisX6 fusion protein on proteome chip (protein, UniProt P25644 2-796, looked up)
Deadenylation-dependent …: SFFGLENSGNARDGPLDFEESYKGYGEHELEENDYLNDETFGDNVQVGTDFDFGNPHSSGSSGNAIGGNGVGATARSYVAATAEGISGPRTDGTAAAGPLDLKPMESLWSTAPPPAMAPSPQSTMAPAPAPQQMAPLQPILSMQDLERQQRQMQQQFMNFHAMGHPQGLPQGPPQQQFPMQPASGQPGPSQFAPPPPPPGVNVNMNQMPMGPVQVPVQASPSPIGMSNTPSPGPVVGATKMPLQSGRRSKRDLSPEEQRRLQIRHAKVEKILKYSGLMTPRDKDFITRYQLSQIVTEDPYNEDFYFQVYKIIQRGGITSESNKGLIARAYLEHSGHRLGGRYKRTDIALQRMQSQVEKAVTVAKERPSKLKDQQAAAGNSSQDNKQANTVLGKISSTLNSKNPRRQLQIPRQQPSDPDALKDVTDSLTNVDLASSGSSSTGSSAAAVASKQRRRSSYAFNNGNGATNLNKSGGKKFILELIETVYEEILDLEANLRNGQQTDSTAMWEALHIDDSSYDVNPFISMLSFDKGIKIMPRIFNFLDKQQKLKILQKIFNELSHLQIIILSSYKTTPKPTLTQLKKVDLFQMIILKIIVSFLSNNSNFIEIMGLLLQLIRNNNVSFLTTSKIGLNLITILISRAALIKQDSSRSNILSSPEISTWNEIYDKLFTSLESKIQLIFPPREYNDHIMRLQNDKFMDEAYIWQFLASLALSGKLNHQRIIIDEVRDEIFATINEAETLQKKEKELSVLPQRSQELDTELKSIIYNKEKLYQDLNLFLNVMGLVYRDGEISELK
modifications: GST-HisX6 tag
notes: as for B1

system: phosphatidylcholine (PC) liposomes; assay: Yeast proteome chip probed with PC liposomes; details: liposome binding signal on yeast proteome chip, Cy3-streptavidin detection
Text: (§1) To identify PI-binding proteins in yeast, liposomes were used as probes because the liposome provides the most relevant physiological condition to assay the interactors. Six types of liposomes were used. Each contains phosphatidylcholine (“PC”) with 1% (w/w) N-(biotinoyl)-1,2-dihexadecanoyl-sn-glycero-3-phosphoethanolamine, triethylammonium salt (biotin DHPE). The biotinylated lipid serves as a label that can be detected by Cy3-streptavidin (21). In addition to PC, the five other liposomes contain either 5% (w/w) PI(3)P, PI(4)P, PI(3,4)P2, PI(4,5)P2, or PI(3,4,5)P3 (FIG. 3A).
(§2) The protein-liposome interaction was assayed as follows. Appropriate amounts of each lipid in chloroform were mixed and dried under nitrogen. The lipid mixture was resuspended in TBS buffer by vortexing. The liposomes were created by sonication. Blocked proteome chips were washed three to five times in PBS buffer, and the extra liquid on the glass surface was removed by tapping the slides vertically on a KIMWIPE™. 200 μl of liposome solution was added to the proteome chip and immediately covered by a hydrophobic plastic cover slip (GRACE BIO-LAB™, USA). After trapped air bubbles were removed, the chip was incubated in a humidity chamber at RT for one hour. To remove the cover slip, the chip was immersed into large volume of PBS buffer (50 ml), so that the slip would float away. The chip was then moved to a second PBS bath (>50 ml) and washed 3×5 min with shaking at RT. After removing extra liquid on the surface of the chip, about 100 μl of Cy3 or Cy5 conjugated streptavidin (PIERCE™, USA; 1:2000 to 1:4000 dilution) was added to the surface and covered by a hydrophobic plastic cover slip (GRACE BIO-LABS™, USA). The chip was incubated for greater than 30 min in the dark at RT. The chip was then washed as described above. To completely remove the liquid on the chip, the chip was spun to dryness at 1500-2000 rpm for 5-10 min at RT.
(§3) • 1. S. Fields, Y. Kohara, D. J. Lockhart, Proc. Natl. Acad. Sci. 96, 8825 (1999); A. Goffeau et al., Science 274, 563 (1996). • 2 P. Ross-Macdonald et al., Nature 402, 413 (1999); J. L., DeRisi, V. R. Iyer, P. O. Brown, Science 278, 680 (1997); E. A. Winzeler et al., Science 285, 901 (1999). P. Uetz et al., Nature 403, 623 (2000); T. Ito et al., Proc. Natl. Acad. Sci. USA. 97, 1143 (2000) • 3 H. Zhu, M. Snyder, Curr. Opin. Chem. Biol. 5, 40 (2001). • 4 M. R. Martzen et al., Science 286, 1153 (1999). • 5 H. Zhu et al., Nat. Genet. 26, 283 (2000). • 6 G. MacBeath, S. L. Schreiber, Science 289, 1760 (2000). • 7 A. Caveman, J. Cell Sci. 113, 3543 (2000). • 8 P. Arenkov et al., Anal. Biochem 278, 123 (2000). • 9 D. A. Mitchell, T. K. Marshall, R. J. Deschenes, Yeast 9, 715 (1993). The expression vector pEGH was created by inserting an RGS-HisX6 epitope tag between the GST gene and the polycloning site of pEG(KG). The yeast ORFs were cloned using the strategy described previously (5), except every step was done in a 96-well format. Plasmid DNAs confirmed by DNA sequencing were reintroduced into both yeast (Y258) and E. coli (DH5a). […] 0.1 mM calcium was present in buffers in all subsequent steps. The chip was washed three times with PBS at RT. Cy3-conjugated streptavidin (Jackson IR, USA) (1:5000 dilution) was added to the chip and incubated for 30 min at RT. After extensive washing, the chip was spun dry and scanned using a microarray scanner; the data was subsequently acquired with the GENEPIX™ array densitometry software (Axon, USA). • 12 S. S. Hook, A. R. Means, Annu. Rev. Pharmacol. Toxicol.41, 471 (2001). • 13 M. S. Cyert, R. Kunisawa, D. Kaim, J. Thorner, Proc. Natl. Acad. Sci. USA 88, 7376 (1991). • 14 D. A. Stirling, K. A. Welch, M. J. Stark, EMBO J. 13, 4329 (1994). • 15 F. Bohl, Kruse, EMBO J. 19, 5514 (2000); E. Bertrand et al., Mol. Cell 2, 437 (1998). • 16 D. C. Winter, E. Y. Choe, R. Li, Proc. Nat. Acad Sci. USA 96, 7288 (1999). • 17 C.

Row | Molecule | PC
1 | B1 | 5.28
2 | B2 | −1.76
3 | B3 | −18.20
4 | B4 | 69.55
5 | B5 | 160.24

system: PI(3,4,5)P3 liposomes; assay: Yeast proteome chip probed with PI(3,4,5)P3 liposomes; details: liposome binding signal on yeast proteome chip, Cy3-streptavidin detection
Text: as §1, §2, §3

Row | Molecule | PI(3, 4, 5)P3
6 | B1 | 8.77
7 | B2 | −6.53
8 | B3 | 5.62
9 | B4 | 33.19
10 | B5 | 56.47

system: PI(3,4)P2 liposomes; assay: Yeast proteome chip probed with PI(3,4)P2 liposomes; details: liposome binding signal on yeast proteome chip, Cy3-streptavidin detection
Text: as §1, §2, §3

Row | Molecule | PI(3, 4)P2
11 | B1 | 6.59
12 | B2 | −8.63
13 | B3 | 11.62
14 | B4 | 20.88
15 | B5 | 10.05

system: PI(4,5)P2 liposomes; assay: Yeast proteome chip probed with PI(4,5)P2 liposomes; details: liposome binding signal on yeast proteome chip, Cy3-streptavidin detection
Text: as §1, §2, §3

Row | Molecule | PI(4, 5)P2
16 | B1 | 22.21
17 | B2 | −7.62
18 | B3 | 6.31
19 | B4 | 66.41
20 | B5 | 66.63

system: PI(4)P liposomes; assay: Yeast proteome chip probed with PI(4)P liposomes; details: liposome binding signal on yeast proteome chip, Cy3-streptavidin detection
Text: as §1, §2, §3

Row | Molecule | PI(4)P
21 | B1 | 25.26
22 | B2 | 3.05
23 | B3 | 19.16
24 | B4 | 60.75
25 | B5 | 158.95
